The data set concerns the molecule itself. The data set is described as follows: negative-stain transmission electron microscopy.

B1: T. maritima encapsulin with His6 insert with Strep-tag (TmEnc-STII) (natural protein, Thermotoga maritima)
chain: MEFLKRSFAPLTEKQWQEIDNRAREIFKTQLYGRKFVDVEGPGGGGGGHHHHHHGGGGGYGWEYAAHPLGEVEVLSDENEVVKWGLRKSLPLIELRATFTLDLWELDNLERGKPNVDLSSLEETVRKVAEFEDEVIFRGCEKSGVKGLLSFEERKIECGSTPKDLLEAIVRALSIFSKDGIEGPYTLVINTDRWINFLKEEAGHYPLEKRVEECLRGGKIITTPRIEDALVVSERGGDFKLILGQDLSIGYEDREKDAVRLFITETFTFQVVNPEALILLKF
B1: the binding result is “binds”.

Values taken from publication PMC8435816 (Synthetic and Systems Biotechnology, 2021).
